Measurements published in patent US20090202557A1 (published 2009).
Residue numbers refer to the chain shown, from its start.

B1: ABT-325, recombinant human immunoglobulin G1 (IgG1) monoclonal antibody specific for human IL-18 (antibody, V domains shown)
VH: EVQLVQSGTEVKKPGESLKISCKGSGYTVTSYWIGWVRQMPGKGLEWMGFIYPGDSETRYSPTFQGQVTISADKSFNTAFLQWSSLKASDTAMYYCARVGSGWYPYTFDIWGQGTMVTVSS
VL: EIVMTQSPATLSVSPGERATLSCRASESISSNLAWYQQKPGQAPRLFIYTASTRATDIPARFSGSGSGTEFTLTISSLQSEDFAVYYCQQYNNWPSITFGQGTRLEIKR
notes: IgG1 kappa
B2: 125-2H, neutralizing murine immunoglobulin G1 (IgG1) monoclonal antibody specific for human IL-18 (antibody, V domains shown)
VH: EIQLQQSGPELVKPGASVKVSCKASGYSFTDYFIYWVKQSHGKSLEWIGDIDPYNGDTSYNQKFRDKATLTVDQSSTTAFMHLNSLTSEDSAVYFCARGLRFWGQGTLVTVSA
VL: DIQMTQSPSSLSASLGERVSLTCRASQDIGSKLYWLQQEPDGTFKRLIYATSSLDSGVPKRFSGSRSGSDYSLTISSLESEDFVDYYCLQYASSPYTFGGGTKLAIKR
notes: Murine IgG1

Assays:
[1] = target: recombinant human IL-18 (KG-1 bioassay) (human, UniProt Q14116 37-193); test: cell-based or functional assay
[2] = target: natural human IL-18 (whole blood assay) (human, UniProt Q14116 37-193); test: cell-based or functional assay
[3] = target: T1, mutant human IL-18 (mature form of pro-IL-18-5C→A, cysteines mutated to alanine) (human, UniProt Q14116 37-193); test: method not stated (Biacore is named later in the paragraph)
T1 construct: also called Mutant IL-18; pro-IL-18-5C→A after caspase-1 cleavage

[4] = target: T2, murine IL-18, mature, with C-terminal V5 and His tags (mouse, UniProt P70380 36-192); test: sandwich ELISA, capture by test antibody, detection by anti-tag antibody
T2 construct: also called IL-18 mouse
T2 sequence: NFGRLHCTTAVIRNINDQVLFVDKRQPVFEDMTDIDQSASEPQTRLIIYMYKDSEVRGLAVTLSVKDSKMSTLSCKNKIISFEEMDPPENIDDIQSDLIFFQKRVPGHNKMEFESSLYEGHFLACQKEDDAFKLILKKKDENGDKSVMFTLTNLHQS

[5] = target: T3, human/murine IL-18 chimera in which C-terminal human IL-18 residues 92-193 were replaced by the corresponding … (human; mouse); test: as above
T3 construct: Mature form after caspase-1 cleavage; also called human (37-91)/murine IL-18 chimera; not shown: C-terminal V5 and His tags and any linker to them
T3 chain: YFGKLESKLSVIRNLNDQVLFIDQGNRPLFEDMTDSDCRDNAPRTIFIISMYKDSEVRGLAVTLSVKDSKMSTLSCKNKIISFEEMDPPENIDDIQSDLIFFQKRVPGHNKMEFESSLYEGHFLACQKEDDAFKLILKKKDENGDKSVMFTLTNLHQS

[6] = target: T4, human/murine IL-18 chimera in which C-terminal human IL-18 residues 120-193 were replaced by the … (human; mouse); test: as above
T4 construct: Mature form after caspase-1 cleavage; also called human (37-119)/murine IL-18 chimera; not shown: C-terminal V5 and His tags and any linker to them
T4 chain: T3 chain with E56Q, V57P, L60M, L64I, D68C, S69E, M71I, K77E

[7] = target: T5, human (37-176)/murine (174-192) IL-18 chimera (human; mouse, UniProt Q14116 37-188); test: as above
T5 chain: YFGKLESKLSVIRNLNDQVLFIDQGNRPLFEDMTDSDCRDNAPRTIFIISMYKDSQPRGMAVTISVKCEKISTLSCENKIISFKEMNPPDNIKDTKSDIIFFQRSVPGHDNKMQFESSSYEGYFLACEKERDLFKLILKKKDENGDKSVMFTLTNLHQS

[8] = target: T5, human (37-176)/murine (174-192) IL-18 …; test: sandwich ELISA: tagged IL-18 chimera captured by the test antibody, detected with an anti-tag antibody

| Binder | IC50, human myelomonocytic cell line KG-1 bioassay; IL-18Rα/β-driven IFN-γ production [1] [nM] | IC50, whole blood assay; LPS+IL-12-driven IFN-γ production [2] [nM] | Kd [3] [nM] | binding result [4] | binding result [5] | binding result [6] | binding result [7] | binding result [8] |
| --- | --- | --- | --- | --- | --- | --- | --- | --- |
| B1 | 0.2 | ~3 | ~0.2 | no binding | no binding | no binding | binds |  |
| B2 | 0.2 | ~3 | ~0.2 |  |  |  |  | no binding |
